Laboratory results published in the Human Domainome abundance scans (Beltran et al. 2025).
± gives the uncertainty stated by the source.

B1: Peroxisome proliferator-activated receptor delta, residues 71 to 145; numbered along this chain, Q03181 (parent)
chain: NMECRVCGDKASGFHYGVHACEGCKGFFRRTIRMKLEYEKCERSCKIQKKNRNKCQYCRFQKCLALGMSHNAIRF

Variants of: B1
Test: abundance fitness (aPCA) (normalised: wild type 0, dead -1); higher = more abundant; growth selection in yeast, the domain comes from the species named
Conditions: Homo sapiens

Question: With NMECRVCGDKASGFHEGVHACEGCKGFFRRTIRMKLEYEKCERSCKIQKKNRNKCQYCRFQKCLALGMSHNAIRF [Y16E] as the variant, how does the abundance fitness read?
Answer: -0.023 ± 0.047

Question: For NMECRVCGDKASGFHWGVHACEGCKGFFRRTIRMKLEYEKCERSCKIQKKNRNKCQYCRFQKCLALGMSHNAIRF [Y16W], which abundance fitness is on record?
Answer: -0.27 ± 0.062

Question: Which abundance fitness does the source give for NMECRVCGDKASGFHVGVHACEGCKGFFRRTIRMKLEYEKCERSCKIQKKNRNKCQYCRFQKCLALGMSHNAIRF [Y16V] here?
Answer: -0.281 ± 0.049

Question: With NMECRVCGDKASGFHKGVHACEGCKGFFRRTIRMKLEYEKCERSCKIQKKNRNKCQYCRFQKCLALGMSHNAIRF [Y16K] as the variant, how does the abundance fitness read?
Answer: -0.356 ± 0.086

Question: With NMECRVCGDKASGFHQGVHACEGCKGFFRRTIRMKLEYEKCERSCKIQKKNRNKCQYCRFQKCLALGMSHNAIRF [Y16Q] as the variant, how does the abundance fitness read?
Answer: -0.034 ± 0.057

Question: With NMECRVCGDKASGFHFGVHACEGCKGFFRRTIRMKLEYEKCERSCKIQKKNRNKCQYCRFQKCLALGMSHNAIRF [Y16F] as the variant, how does the abundance fitness read?
Answer: -0.085 ± 0.082

Question: For NMECRVCGDKASGFHAGVHACEGCKGFFRRTIRMKLEYEKCERSCKIQKKNRNKCQYCRFQKCLALGMSHNAIRF [Y16A], which abundance fitness is on record?
Answer: -0.065 ± 0.042

Question: With NMECRVCGDKASGFHLGVHACEGCKGFFRRTIRMKLEYEKCERSCKIQKKNRNKCQYCRFQKCLALGMSHNAIRF [Y16L] as the variant, how does the abundance fitness read?
Answer: -0.269 ± 0.045

Question: With NMECRVCGDKASGFHNGVHACEGCKGFFRRTIRMKLEYEKCERSCKIQKKNRNKCQYCRFQKCLALGMSHNAIRF [Y16N] as the variant, how does the abundance fitness read?
Answer: -0.032 ± 0.069

Question: Which abundance fitness does the source give for NMECRVCGDKASGFHHGVHACEGCKGFFRRTIRMKLEYEKCERSCKIQKKNRNKCQYCRFQKCLALGMSHNAIRF [Y16H] here?
Answer: -0.13 ± 0.071

Question: Which abundance fitness does the source give for NMECRVCGDKASGFHTGVHACEGCKGFFRRTIRMKLEYEKCERSCKIQKKNRNKCQYCRFQKCLALGMSHNAIRF [Y16T] here?
Answer: -0.32 ± 0.059

Question: For NMECRVCGDKASGFNYGVHACEGCKGFFRRTIRMKLEYEKCERSCKIQKKNRNKCQYCRFQKCLALGMSHNAIRF [H15N], which abundance fitness is on record?
Answer: -0.341 ± 0.12

Question: For NMECRVCGDKASGFDYGVHACEGCKGFFRRTIRMKLEYEKCERSCKIQKKNRNKCQYCRFQKCLALGMSHNAIRF [H15D], which abundance fitness is on record?
Answer: -0.027 ± 0.05

Question: For NMECRVCGDKASGFEYGVHACEGCKGFFRRTIRMKLEYEKCERSCKIQKKNRNKCQYCRFQKCLALGMSHNAIRF [H15E], which abundance fitness is on record?
Answer: -0.025 ± 0.045

Question: For NMECRVCGDKASGFCYGVHACEGCKGFFRRTIRMKLEYEKCERSCKIQKKNRNKCQYCRFQKCLALGMSHNAIRF [H15C], which abundance fitness is on record?
Answer: -0.044 ± 0.066

Question: With NMECRVCGDKASGFTYGVHACEGCKGFFRRTIRMKLEYEKCERSCKIQKKNRNKCQYCRFQKCLALGMSHNAIRF [H15T] as the variant, how does the abundance fitness read?
Answer: -0.174 ± 0.047

Question: With NMECRVCGDKASGFFYGVHACEGCKGFFRRTIRMKLEYEKCERSCKIQKKNRNKCQYCRFQKCLALGMSHNAIRF [H15F] as the variant, how does the abundance fitness read?
Answer: -0.006 ± 0.069

Question: Which abundance fitness does the source give for NMECRVCGDKASGFPYGVHACEGCKGFFRRTIRMKLEYEKCERSCKIQKKNRNKCQYCRFQKCLALGMSHNAIRF [H15P] here?
Answer: -0.242 ± 0.055

Question: Which abundance fitness does the source give for NMECRVCGDKASGFYYGVHACEGCKGFFRRTIRMKLEYEKCERSCKIQKKNRNKCQYCRFQKCLALGMSHNAIRF [H15Y] here?
Answer: -0.088 ± 0.061

Question: With NMECRVCGDKASGFSYGVHACEGCKGFFRRTIRMKLEYEKCERSCKIQKKNRNKCQYCRFQKCLALGMSHNAIRF [H15S] as the variant, how does the abundance fitness read?
Answer: -0.117 ± 0.041

Question: For NMECRVCGDKASGFQYGVHACEGCKGFFRRTIRMKLEYEKCERSCKIQKKNRNKCQYCRFQKCLALGMSHNAIRF [H15Q], which abundance fitness is on record?
Answer: -0.188 ± 0.066

Question: For NMECRVCGDKASGFVYGVHACEGCKGFFRRTIRMKLEYEKCERSCKIQKKNRNKCQYCRFQKCLALGMSHNAIRF [H15V], which abundance fitness is on record?
Answer: -0.238 ± 0.043

Question: With NMECRVCGDKASGFIYGVHACEGCKGFFRRTIRMKLEYEKCERSCKIQKKNRNKCQYCRFQKCLALGMSHNAIRF [H15I] as the variant, how does the abundance fitness read?
Answer: -0.154 ± 0.076

Question: Which abundance fitness does the source give for NMECRVCGDKASGFMYGVHACEGCKGFFRRTIRMKLEYEKCERSCKIQKKNRNKCQYCRFQKCLALGMSHNAIRF [H15M] here?
Answer: -0.125 ± 0.05

Question: For NMECRVCGDKASGFAYGVHACEGCKGFFRRTIRMKLEYEKCERSCKIQKKNRNKCQYCRFQKCLALGMSHNAIRF [H15A], which abundance fitness is on record?
Answer: -0.116 ± 0.042

Question: With NMECRVCGDKASGFRYGVHACEGCKGFFRRTIRMKLEYEKCERSCKIQKKNRNKCQYCRFQKCLALGMSHNAIRF [H15R] as the variant, how does the abundance fitness read?
Answer: -0.595 ± 0.057

Question: For NMECRVCGDKASGFGYGVHACEGCKGFFRRTIRMKLEYEKCERSCKIQKKNRNKCQYCRFQKCLALGMSHNAIRF [H15G], which abundance fitness is on record?
Answer: -0.285 ± 0.039

Question: Which abundance fitness does the source give for NMECRVCGDKASGFKYGVHACEGCKGFFRRTIRMKLEYEKCERSCKIQKKNRNKCQYCRFQKCLALGMSHNAIRF [H15K] here?
Answer: -0.61 ± 0.11

Question: For NMECRVCGDKASGFHYLVHACEGCKGFFRRTIRMKLEYEKCERSCKIQKKNRNKCQYCRFQKCLALGMSHNAIRF [G17L], which abundance fitness is on record?
Answer: -0.692 ± 0.074

Question: Which abundance fitness does the source give for NMECRVCGDKASGFHYHVHACEGCKGFFRRTIRMKLEYEKCERSCKIQKKNRNKCQYCRFQKCLALGMSHNAIRF [G17H] here?
Answer: -0.682 ± 0.17

Question: Which abundance fitness does the source give for NMECRVCGDKASGFHYFVHACEGCKGFFRRTIRMKLEYEKCERSCKIQKKNRNKCQYCRFQKCLALGMSHNAIRF [G17F] here?
Answer: -0.661 ± 0.16

Question: Which abundance fitness does the source give for NMECRVCGDKASGFHYDVHACEGCKGFFRRTIRMKLEYEKCERSCKIQKKNRNKCQYCRFQKCLALGMSHNAIRF [G17D] here?
Answer: -0.15 ± 0.058

Question: Which abundance fitness does the source give for NMECRVCGDKASGFHYAVHACEGCKGFFRRTIRMKLEYEKCERSCKIQKKNRNKCQYCRFQKCLALGMSHNAIRF [G17A] here?
Answer: -0.465 ± 0.062

Question: For NMECRVCGDKASGFHYKVHACEGCKGFFRRTIRMKLEYEKCERSCKIQKKNRNKCQYCRFQKCLALGMSHNAIRF [G17K], which abundance fitness is on record?
Answer: -0.861 ± 0.17

Question: For NMECRVCGDKASGFHYEVHACEGCKGFFRRTIRMKLEYEKCERSCKIQKKNRNKCQYCRFQKCLALGMSHNAIRF [G17E], which abundance fitness is on record?
Answer: -0.27 ± 0.061

Question: With NMECRVCGDKASGFHYMVHACEGCKGFFRRTIRMKLEYEKCERSCKIQKKNRNKCQYCRFQKCLALGMSHNAIRF [G17M] as the variant, how does the abundance fitness read?
Answer: -0.158 ± 0.076

Question: Which abundance fitness does the source give for NMECRVCGDKASGFHYIVHACEGCKGFFRRTIRMKLEYEKCERSCKIQKKNRNKCQYCRFQKCLALGMSHNAIRF [G17I] here?
Answer: -0.813 ± 0.19
